Source: the DeepSol protein solubility set

Assay: soluble on expression in E. coli; label from the status in PepcDB or PDB records

For “MTRYLRLSGLEPFVLTPDIPFVNVGERTNVTGSARFRKLITNRDYAAALEVARDQVQNGAQILDVNMDEGLIDSKAAMVEFLNLIASEPDIARVPLMIDSSKWEVIEAGLKCVQGKPVVNSISLKEGEESFRRQAGLCLAYGAAVVVMAFDEEGQADSFARKTTICARAYRILVEEVGFPPEDIIFDPNVFAVATGIEEHDNYGVDFIEAARWIRANLPHAHVSGGVSNLSFSFRGNEPVREAMHAVFLYHAIRAGMDMGIVNAGQLAVYDQIDPDLREACEDVVLNRKPKQGGTATERLLALAER”, which “soluble on expression in E. coli” value is on record?
Its value is “not soluble”.

Which “soluble on expression in E. coli” value does the source give for “MERPQLDSMSQDLSEALKEATKEVHIRAENSEFMRNFQKGQVSREGFKLVTASLYHIYTALEEEIERNKQNPVYAPLYFPEELHRRAALEQDLAFWYGPHWQEAIPYTPATQHYVKRLHEVGGTHPELLVAHAYTRYLGDLSGGQVLKKIAQKALALPSSGEGLASFTFPSIDNPTKFKQLYRARMNTLELTPEVKHRVTEEAKTAFLLNIELFEELQALLTEEHKDQSPSQTEFLRQRPASLVQDTTSAETPRGKSQISTSSSQTP” here?
The value was “soluble”.

Which “soluble on expression in E. coli” value does the source give for “MGSDKIHHHHHHMKQYLRLRAFKAISFDLDDTLYHNTPYLQLATDKFFAFLNQNYPKTQTLHAQGWLTIKHDLFDLHPELKHDTSAARYAMVHDGLMSLGYKESEASEGAQKSMACFHFYRSDFTLDDKVLNLLKQLAESVTLVGISNGNVDASRIGLSESLAFVQHPGHGVKMKPHGDMFELACQRLNISPAELLHVGDHQMADVSGARRAGCQSVWFNPEKHPLTRRTGSILPHVELDDLNKLLNLV” here?
Its value is “not soluble”.

For “MAHHHHHHMSGILTNLNIESGYFNEDIKEESNESNFMYANISMLIRAYKKDRNKLILLNKKLNLIKIVGLVLNIEEKKEFIIYTIDDTTGCIKAKLLLTYSLNSYNEKKDNIKINDLIQIFGICNTVSLNEDLTISISSINKLDSFNYLCHHHLLVFHDYLKYQEEERRNPIEDKSRNDEDDLESTQNNENAYFNTFFY”, which “soluble on expression in E. coli” value is on record?
Its value is “not soluble”.

Which “soluble on expression in E. coli” value does the source give for “MKVFGISGSPRLQGTHFAVNYALNYLKEKGAEVRYFSVSRKKINFCLHCDYCIKKKEGCIHKDDMEEVYENLIWADGVIIGTPVYQGNVTGQLKTLMDRCRAILAKNPKVLRGRVGMAIAVGGDRNGGQEIALRTIHDFFIINEMIPVGGGSFGANLGATFWSKDRGKKGVEEDEEGLRVLRKTLNRFYEVLKEKRGLLEHHHHHH” here?
The value was “not soluble”.

With “MTGNEHSAIETYECDVLVAGSGASGMSAAITARYRGLDVLIVEKEPRFGGTTARSGGWLWIPGTSLAKAYGIEETPEQARTYLRHEAGNNFDGARIDAFLSAGPEAVDFFTTRTALRFDMPLVFPDYHAEAPGGAQGGRSMVTRPFDGRELGEQIRTLGMPLPELTVFGMMLGSGKEIIHFMRVTKSLTSAVYVAKRLSRHLMDVLHYGRGMTLTNGNALAGRLAKSALDLKIPMWLSSPVRELTVENGAVTGAIVSREGRKVRVRARQGVVLACGGFPHDVERRKKMFPHAPTGNEHFSPGPIGNTGDGLRLAESAGGHVEDRLPNAAAWVPVSLTTRKDGSKGVMPHFIDRAKPGVIAVMRDGRRFANEGNSYHDFVQAMVKAAKPGEEIAAYLVCDHKTLRKYGLGCVPPFPMPLGHHLSTGYLMRGDTLEALAAKAGIDATAFAETVRQFNTTAPLGHDAAFGKGSKAYNRYQGDALHGPNPCVAPIENGPFYAIKMVIGDLGTYAGIITDENARALDAEGRVIPGLYAAGNDMASIMGGNYPGAGITLGPALTFGYIAGRHLADSAAKRNAALEHHHHHH” as the sequence, how does the “soluble on expression in E. coli” value read?
The value was “not soluble”.

Which “soluble on expression in E. coli” value does the source give for “MGSDKIHHHHHHMRTMVAVRLRNLVESDRERLLIWRNSPDVSAYMYSDHKIGHEEHDHWFDVARHDPRRRYWIIEADGEPVGLANLADIDLVHRRCAWAYYLASPKVRGLGVGSFVEFQIIEYVFNQLHLNKLWCEVLISNESVWRLHELYGFQREALFRQHVMKQGHEVDVIGLGLLASDWAARRDAMAERLCAKGYTIPDLTCRAA” here?
The value was “not soluble”.

With “MGSDKIHHHHHHMRLLFRKAGEFFRDFVSIFKHISDDLEMYLKLDPAAESKLQVFFFYASFQGLMWYRFAHFFYKWKLKVLAYLIYYFVRVVFSMDIHPAARIAPGVVIDHGIGVVIGSTASVGRGTLIYHGVTLGTRKPCSGKRHPDVGENVMIGTGAKILGPIRVGNNAVVGANAVVLEDVPDGAVVVGVPARIVKWRRDFCDDGKTDREHSYSETRFDRLENLLETGKE” as the sequence, how does the “soluble on expression in E. coli” value read?
The value was “not soluble”.

For “MGSDKIHHHHHHMQQGQMAYDRAITVFSPDGRLFQVEYAREAVKKGSTALGMKFANGVLLISDKKVRSRLIEQNSIEKIQLIDDYVAAVTSGLVADARVLVDFARISAQQEKVTYGSLVNIENLVKRVADQMQQYTQYGGVRPYGVSLIFAGIDQIGPRLFDCDPAGTINEYKATAIGSGKDAVVSFLEREYKENLPEKEAVTLGIKALKSSLEEGEELKAPEIASITVGNKYRIYDQEEVKKFL”, which “soluble on expression in E. coli” value is on record?
Its value is “not soluble”.

With “MIHSLFFHNNTKGTPSMKHPIDSISAEIEDEQAYVDKLFGKLDEEVVAANQRLNDVMLHVDPANPDAEALVRRETEYHALNEKIDRLNIAQLGLVFGRIDVTAQRTDLIDNWVAGTDNVDRRYIGRMGLDDRQNDYRTLLLDWRAPLARPFYLATTAHPEGVLHRRHIRTQGRSVVGVDDEVLSGVSAESAHSERADVVSETALYRAMCSARTGHMHSIVETIQREQDDIIRDPTRGVMVVEGGPGTGKTAVALHRVAYLLYTWRDQLAKTGVLIVGPNRSFLDYISRVLPELGETGVVLSTVGDLYPGISGTAVEDSLAREIKGSEEMVTVLRRLVQEYQQIPSEPFTIKIDGLELTVTPDIVKKARTRARRSRRPHNEARPLFTEHLTELLSHQMADLIGADPMGGKNLLSAADIAQLHDELLEESVVAEIVDEYWPQLTPQDTLTSLLESQNMISTVAYDYDEETQEALWRQQGSPWAASDAALLDELAVIIGVPDPEKERAEQEKAWREQIKDAQDALEILTGSANTDLDDESDAEILSAHDVIDAETLARRQEVRDIRSTAQRAREDLAWAYGHVIVDEAQELTPMEWRMVMRRCPSRWMTLVGDTAQTSSPAGVDSWAEALEPFVSGRYVTHHLTINYRTPAEIMEWANKVLHVFAPDAVGSTALRQSGTPVRFENSDAHAIEIAQKLRQDDPSRLTAIIGPDSMANNEIFGVSDIKGLEYDHVVVTNPIDIVNGSPQGWQDLYVALTRATQSLCIIGDLPELS” as the sequence, how does the “soluble on expression in E. coli” value read?
Its value is “not soluble”.

For “MGSDKIHHHHHHTQTTEKENEFSMSMQIRPRAEYRNGALVPRNEGQKAASFINNRARLSLDYKRSDLEIKMSAQHVGVWGQDPQIDKNGRFILNEAWAKLDFGKGFFAQLGRQTLVYDDERILGGLDWNVAGRYHDALKLGYANKNNEIHAILAFNQNDEKTAGGTYYNSSIGQPYKNMQTVWYHYKADKIPFGASLLFMNLGLETGNQLTQDSHTRYLQTMGTYLTYKNSGWNLDGAFYYQTGKNKDAESVSAFMASATAAYAFNKTWGMVVSFDYLSGNEEGSSKFKAFDPLYGTHHKFYGSMDYFYASAFNKGFAPGLIDGRLGARFRASAKVDMELNYHYFATATEVDFKEDLKKSLGSEVDYQINWSVMKDVKLSAGYSFMLGTKTMDAVKGGNHKSWQDWGWVSVNINPKVFFTKW”, which “soluble on expression in E. coli” value is on record?
The value was “not soluble”.

For “MGSDKIHHHHHHMDFWKCPHCGFVVSKTHQEMTQDQWSQLNSSWHHNFENNRESRTTNQPPYADQALVLAILKENDILDLDDGLDYAAGYGTFSKCLKKYFNIGIRIFDRYVHSSDEGMRYVAQKELSRYKLVINSAMFEHVLNRHALDEVNGLVKDDGVLMLHTVVCERIPKDPGWFYIDTMVHTALHTNKSMSILMDQWGYGASIYSPQAKSWFLFKRDNPLIDDLEAKVAGINHELQTTYLHYKRGFVDYWKGF”, which “soluble on expression in E. coli” value is on record?
The value was “not soluble”.

For “MDLPKAYDPKSVEPKWAEKWAKNPFVANPKSGKPPFVIFMPPPNVTGSLHMGHALDNSLQDALIRYKRMRGFEAVWLPGTDHAGIATQVVVERLLLKEGKTRHDLGREKFLERVWQWKEESGGTILKQLKRLGASADWSREAFTMDEKRSRAVRYAFSRYYHEGLAYRAPRLVNWCPRCETTLSDLEVETEPTPGKLYTLRYEVEGGGFIEIATVRPETVFADQAIAVHPEDERYRHLLGKRARIPLTEVWIPILADPAVEKDFGTGALKVTPAHDPLDYEIGERHGLKPVSVINLEGRMEGERVPEALRGLDRFEARRKAVELFREAGHLVKEEDYTIALATCSRCGTPIEYAIFPQWWLRMRPLAEEVLKGLRRGDIAFVPERWKKVNMDWLENVKDWNISRQLWWGHQIPAWYCEDCQAVNVPRPERYLEDPTSCEACGSPRLKRDEDVFDTWFSSALWPLSTLGWPEETEDLKAFYPGDVLVTGYDILFLWVSRMEVSGYHFMGERPFKTVLLHGLVLDEKGQKMSKSKGNVIDPLEMVERYGADALRFALIYLATGGQDIRLDLRWLEMARNFANKLYNAARFVLLSREGFQAKEDTPTLADRFMRSRLSRGVEEITALYEALDLAQAAREVYELVWSEFCDWYLEAAKPALKAGNAHTLRTLEEVLAVLLKLLHPMMPFLTSELYQALTGKEELALEAWPEPGGRDEEAERAFEALKQAVTAVRALKAEAGLPPAQEVRVYLEGETAPVEENLEVFRFLSRADLLPERPAKALVKAMPRVTARMPLEGLLDVEEWRRRQEKRLKELLALAERSQRKLASPGFREKAPKEVVEAEEARLKENLEQAERIREALSQIG”, which “soluble on expression in E. coli” value is on record?
The value was “soluble”.

For “MSLVNTIGFDREKYIEMQSQHIRERREALGGKLYLEMGGKLFDDMHASRVLPGFTPDNKIAMLDRIKDEVEILVCINAKDLERHKIRADLGISYEEDVLRLVDVFRDRGFLVEHVVLTQLENDNRLALAFIERLQRLGIKVSRHRVIPGYPTDMDRIVSDEGFGLNEYAETTRDLVVVTAPGPGSGKLATCLSQVYHEHKRGVAAGYAKFETFPIWNLPLEHPVNLAYEAATVDLNDANVIDHFHLAAYGEQTVNYNRDVEAFPLLKTLLERLMGESPYQSPTDMGVNMAGNCISDDAACRHASEQEIIRRYFKALVEEARTGKDSTQSDRAAVVMAKAGIKASQRVVVEPARQVEERTSLPGCAIELVDGSIITGATSDLLGCSSSMLLNALKHLAGIDDAIHLLSPESIEPIQTLKTVHLGSSNPRLHTDEVLIALSVSAATDSNAQKALDQLKNLRGCDVHTTTILGSVDEGIFRNLGVLVTSDPKFQKNKLYQKREGHHHHHH”, which “soluble on expression in E. coli” value is on record?
Its value is “soluble”.

For “MTITSGIDVGTGAIKVVVFEVDGDQERCLGKRVERVRQRDPLKLAGDIYDDLLRETGLARADVAYCATTGEGESLTFHTGHFYSMTTHARGAIYLNPGSRAVLDTGALHGRAIRMDERGKVLAYKMTSQCASGSGQFLENIARYLGIAQDEIGSLSQRADNPEKVSGICAVLAETDVINMVSRGISSPNILRGIHESMADRLAKLLKTLGSLDGTVQMTGGLALDAGLVEAMKDAVVKAKVDVAIESHPDAIYAGAIGAALWGAFRHKRLADMAHAA”, which “soluble on expression in E. coli” value is on record?
The value was “not soluble”.

Which “soluble on expression in E. coli” value does the source give for “MIAITGASGQLGRLVIAQLLEKVPASDIVALVRDVNKVADLSAKGVQVKAADYNQPEALAFALQGVDKVLLISSSEVGQRAAQHRNVIEAAVKAGVKLVAYTSLLHADKSPLALAEEHRQTEALLKDSGLPHVLLRNGWYTENYAASIPAALEHGVFIGSAGEGKITSATREDFAAAAVAVLTQEGQAGKVYELAGDEPYTLVELAAEISKQSGKSIGYQNLSGAEFTAALVSAGLPDVFAQIIADSDVGASKGGLFDGGKHLSQLIGRPTTPLSAVVKATLK” here?
Its value is “soluble”.

Which “soluble on expression in E. coli” value does the source give for “MSLSSLEGQENSFTINSVDMKSLPDWTVQNGKNLTLQCFADVSTTSHVKPQHQMLFYKDDVLFYNISSMKSTESYFIPEVRIYDSGTYKCTVIVNNKEKTTAEYQLLVEGVPSPRVTLDKKEAIQGGIVRVNCSVPEEKAPIHFTIEKLELNEKMVKLKREKNSRDQNFVILEFPVEEQDRVLSFRCQARIISGIHMQTSESTKSELVTVTESFSTPKFHISPTGMIMEGAQLHIKCTIQVTHLAQEFPEIIIQKDKAIVAHNRHGNKAVYSVMAMVEHSGNYTCKVESSRISKVSSIVVNITELFSKPELESSFTHLDQGERLNLSCSIPGAPPANFTIQKEDTIVSQTQDFTKIASKSDSGTYICTAGIDKVVKKSNTVQIVVCEMLSEGHHHHHH” here?
Its value is “not soluble”.
